Data as given in patent US20210347852A1 (Regeneron, published 2021).

B1: Human VEGF121 (R&D SYSTEMS Cat #4644-VS) (ligand, UniProt P15692-9 27-147, looked up)
chain: APMAEGGGQNHHEVVKFMDVYQRSYCHPIETLVDIFQEYPDEIEYIFKPSCVPLMRCGGCCNDEGLECVPTEESNITMQIMRIKPHQGQHIGEMSFLQHNKCECRPKKDRARQEKCDKPRR
B2: REGN7483, VEGF mini-trap hIgG1 Fc (other)
chain: SDTGRPFVEMYSEIPEIIHMTEGRELVIPCRVTSPNITVTLKKFPLDTLIPDGKRIIWDSRKGFIISNATYKEIGLLTCEATVNGHLYKTNYLTHRQTNTIIDVVLSPSHGIELSVGEKLVLNCTARTELNVGIDFNWEYPSSKHQHKKLVNRDLKTQSGSEMKKFLSTLTIDGVTRSDQGLYTCAASSGLMTKKNSTFVRVHEKDKTHTCPPCPAPELLG
notes: Enzymatically cleaved from aflibercept; also called REGN7483F; VEGF mini-trap derived from REGN3
B3: REGN10102, VEGF trap hIgG2 Fc w/2Cys (Fc fusion)
chain: SDTGRPFVEMYSEIPEIIHMTEGRELVIPCRVTSPNITVTLKKFPLDTLIPDGKRIIWDSRKGFIISNATYKEIGLLTCEATVNGHLYKTNYLTHRQTNTIIDVVLSPSHGIELSVGEKLVLNCTARTELNVGIDFNWEYPSSKHQHKKLVNRDLKTQSGSEMKKFLSTLTIDGVTRSDQGLYTCAASSGLMTKKNSTFVRVHEKVECPPCPAPPVAGPSVFLFPPKPKDTLMISRTPEVTCVVVDVSHEDPEVQFNWYVDGVEVHNAKTKPREEQFNSTFRVVSVLTVVHQDWLNGKEYKCKVSNKGLPAPIEKTISKTKGQPREPQVYTLPPSREEMTKNQVSLTCLVKGFYPSDIAVEWESNGQPENNYKTTPPMLDSDGSFFLYSKLTVDKSRWQQGNVFSCSVMHEALHNHYTQKSLSLSPGK
B4: REGN10117, VEGF Trap hIgG2 Fc w/4 Cys (Fc fusion)
chain: SDTGRPFVEMYSEIPEIIHMTEGRELVIPCRVTSPNITVTLKKFPLDTLIPDGKRIIWDSRKGFIISNATYKEIGLLTCEATVNGHLYKTNYLTHRQTNTIIDVVLSPSHGIELSVGEKLVLNCTARTELNVGIDFNWEYPSSKHQHKKLVNRDLKTQSGSEMKKFLSTLTIDGVTRSDQGLYTCAASSGLMTKKNSTFVRVHEKERKCCVECPPCPAPPVAGPSVFLFPPKPKDTLMISRTPEVTCVVVDVSHEDPEVQFNWYVDGVEVHNAKTKPREEQFNSTFRVVSVLTVVHQDWLNGKEYKCKVSNKGLPAPIEKTISKTKGQPREPQVYTLPPSREEMTKNQVSLTCLVKGFYPSDIAVEWESNGQPENNYKTTPPMLDSDGSFFLYSKLTVDKSRWQQGNVFSCSVMHEALHNHYTQKSLSLSPGK

Legend:
[1] = biological target: T1, VEGFR1 chimeric receptors Flt1(1-7)-IL18Rα / Flt1(1-7)-IL18Rβ on HEK293/D9 reporter cells (UniProt P17948 27-758; Q13478 351-541; P17948 27-758; O95256 378-599, limits assumed); assay: cell-based or functional assay
[2] = biological target: T1, VEGFR1 chimeric receptors …; assay: cell-based or functional assay; remark: listed apart in the source
[3] = biological target: B1; assay: cell-based or functional assay
Human VEGF165 (REGN110) [4] = biological target: T2, Human VEGF165 (REGN110) (human, UniProt P15692-4 27-191); assay: cell-based or functional assay
[5] = biological target: B1; assay: cell-based or functional assay; remark: listed apart in the source
Human VEGF165 (REGN110) [6] = biological target: T2, Human VEGF165 (REGN110); assay: SPR (Biacore 3000), 25C, trap captured by REGN18, hVEGF165 injected
Procedure: Equilibrium dissociation constants (KD values) for human VEGF₁₆₅ binding to various purified VEGF mini-trap constructs were determined using a real-time surface plasmon resonance biosensor using a Biacore 3000 instrument. All binding studies were performed in 10 mM HEPES, 150 mM NaCl, 3 mM EDTA, and 0.05% v/v Surfactant Tween-20; pH 7.4 (HBS-ET) running buffer at 25° C. The Biacore sensor surface was first derivatized by amine coupling with a monoclonal mouse anti-VEGFR1 antibody (REGN18) to capture VEGF mini-trap constructs. Binding studies were performed on the following human VEGF reagents: human VEGF₁₆₅. […] Dissociation of bound VEGF₁₆₅ reagent from VEGF mini-trap constructs was monitored for 60 minutes in HBS-ET running buffer. Kinetic association (ka) and dissociation (kd) rate constants were determined by fitting the real-time sensorgrams to a 1:1 binding model using Scrubber 2.0c curve fitting software. Binding dissociation equilibrium constants (KD) and dissociative half-lives (t1/2) were calculated from the kinetic rate constants as: […]

[7] = biological target: B1; assay: cell-based or functional assay; remark: listed apart in the source

T1 sequence (P17948 other isoform, or with tags, fused parts or gaps mutant limits assumed, chain 1 of 2): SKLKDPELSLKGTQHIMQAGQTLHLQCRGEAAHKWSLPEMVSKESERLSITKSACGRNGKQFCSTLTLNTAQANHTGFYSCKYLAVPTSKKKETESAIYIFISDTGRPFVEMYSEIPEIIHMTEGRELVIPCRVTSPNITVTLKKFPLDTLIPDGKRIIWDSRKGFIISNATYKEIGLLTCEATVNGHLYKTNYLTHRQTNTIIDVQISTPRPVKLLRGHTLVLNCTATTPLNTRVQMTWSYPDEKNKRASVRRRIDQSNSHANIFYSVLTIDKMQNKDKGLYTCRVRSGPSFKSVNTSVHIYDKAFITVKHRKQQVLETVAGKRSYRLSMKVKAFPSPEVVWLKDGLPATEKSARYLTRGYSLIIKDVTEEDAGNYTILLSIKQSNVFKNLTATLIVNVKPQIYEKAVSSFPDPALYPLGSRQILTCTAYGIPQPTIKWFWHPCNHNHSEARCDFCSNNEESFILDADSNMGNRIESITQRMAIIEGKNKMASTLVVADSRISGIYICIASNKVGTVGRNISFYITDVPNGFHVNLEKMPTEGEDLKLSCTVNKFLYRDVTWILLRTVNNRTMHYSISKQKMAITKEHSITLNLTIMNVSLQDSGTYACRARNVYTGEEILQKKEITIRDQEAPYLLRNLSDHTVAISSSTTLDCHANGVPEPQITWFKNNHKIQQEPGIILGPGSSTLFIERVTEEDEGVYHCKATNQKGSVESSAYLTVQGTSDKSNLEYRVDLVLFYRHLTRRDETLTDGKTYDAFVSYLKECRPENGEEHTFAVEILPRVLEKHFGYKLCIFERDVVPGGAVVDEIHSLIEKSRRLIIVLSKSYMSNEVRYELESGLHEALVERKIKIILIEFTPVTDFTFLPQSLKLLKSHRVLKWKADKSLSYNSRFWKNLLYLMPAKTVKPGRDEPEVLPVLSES
T1 sequence (P17948 other isoform, or with tags, fused parts or gaps mutant limits assumed, chain 2 of 2): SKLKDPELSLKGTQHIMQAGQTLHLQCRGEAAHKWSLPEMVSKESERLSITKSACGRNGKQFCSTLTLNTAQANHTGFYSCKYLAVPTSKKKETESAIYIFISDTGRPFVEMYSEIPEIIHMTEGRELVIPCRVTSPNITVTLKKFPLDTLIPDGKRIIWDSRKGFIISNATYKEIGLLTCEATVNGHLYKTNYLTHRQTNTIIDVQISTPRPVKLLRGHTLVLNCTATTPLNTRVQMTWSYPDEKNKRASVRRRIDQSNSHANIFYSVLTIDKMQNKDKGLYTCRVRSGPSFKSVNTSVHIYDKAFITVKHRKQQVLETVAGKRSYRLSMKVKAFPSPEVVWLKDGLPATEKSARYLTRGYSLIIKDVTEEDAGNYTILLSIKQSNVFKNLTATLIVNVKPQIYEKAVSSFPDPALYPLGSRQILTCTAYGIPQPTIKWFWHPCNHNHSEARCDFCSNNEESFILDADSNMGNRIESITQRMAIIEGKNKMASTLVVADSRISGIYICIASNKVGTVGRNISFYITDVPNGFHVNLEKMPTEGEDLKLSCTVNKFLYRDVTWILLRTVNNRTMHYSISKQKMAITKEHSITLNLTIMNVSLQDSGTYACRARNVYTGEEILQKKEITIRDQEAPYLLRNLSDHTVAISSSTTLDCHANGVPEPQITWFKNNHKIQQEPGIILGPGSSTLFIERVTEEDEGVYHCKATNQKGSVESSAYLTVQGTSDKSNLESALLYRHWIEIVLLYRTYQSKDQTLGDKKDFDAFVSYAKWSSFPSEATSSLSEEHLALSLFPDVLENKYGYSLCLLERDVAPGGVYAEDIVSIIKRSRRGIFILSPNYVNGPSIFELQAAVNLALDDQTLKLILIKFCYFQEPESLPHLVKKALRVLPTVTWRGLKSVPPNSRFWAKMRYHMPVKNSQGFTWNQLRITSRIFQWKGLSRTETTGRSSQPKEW

Row | Binder | EC50 (read off the curve); NFkB-luciferase reporter (RLU), 293/D9/VEGFR1 cells, VEGF121 titrated alone [A] [1] | EC50 of activation of HEK293/D9/Flt-IL18Rα/Flt-IL18Rβ (VEGFR1) luciferase reporter cells [2] | IC50, Inhibition of 20 pM VEGF121, VEGFR1 assay (luciferase) [3] | IC50, Inhibition of 20 pM VEGF165, VEGFR1 assay (luciferase) (Human VEGF165 (REGN110) [4]) | IC50 (read off the curve); NFkB-luciferase reporter (RLU), 293/D9/VEGFR1 cells, VEGF121 constant 40 pM [A] [5] | 2.5 nM hVEGF165 Bound (RU) (Human VEGF165 (REGN110) [6]) | Kd (Human VEGF165 (REGN110) [6]) | koff (Human VEGF165 (REGN110) [6]) | kon (Human VEGF165 (REGN110) [6]) | t½ (Human VEGF165 (REGN110) [6]) | IC50 (read off the curve); NFkB-luciferase reporter (RLU), 293/D9/VEGFR1 cells, VEGF121 constant 40 pM [C] [7]
1 | B1 | ~100 pM | ~30 pM |  |  |  |  |  |  |  |  | 
2 | B2 |  |  | 2.09e-11 M | 3.36e-11 M | ~2e-11 M | 9.37 RU | 1.9 pM | 1.95e-05 s⁻¹ | 1.01e+07 M⁻¹ s⁻¹ | 9.85 h | 
3 | B3 |  |  | 1.43e-11 M |  |  | 6.6 RU | 2.6 pM | 2.77e-05 s⁻¹ | 1.06e+07 M⁻¹ s⁻¹ | 6.95 h | ~1e-11 M
4 | B4 |  |  | 2.02e-11 M |  | ~2e-11 M | 4.2 RU | ≤ 1.37 pM | ≤ 1e-05 s⁻¹ | 7.3e+06 M⁻¹ s⁻¹ | ≥ 19.2 h | 
